# Data: the DeepSol protein solubility set
# Experiment: soluble on expression in E. coli; label from the status in PepcDB or PDB records
row,Sequence,soluble on expression in E. coli
1,MYLYIETLKQRLDAINQLRVDRALAAMGPAFQQVYSLLPTLLHYHHPLMPGYLDGNVPKGICLYTPDETQRHYLNELELYRGMSVQDPPKGELPITGVYTMGSTSSVGQSCSSDLDIWVCHQSWLDSEERQLLQRKCSLLESWAASLGVEVSFFLIDENRFRHNESGSLGGEDCGSTQHILLLDEFYRTAVRLAGKRILWNMVPCDEEEHYDDYVMTLYAQGVLTPNEWLDLGGLSSLSAEEYFGASLWQLYKSIDSPYKAVLKTLLLEAYSWEYPNPRLLAKDIKQRLHDGEIVSFGLDPYCMMLERVTEYLTAIEDFTRLDLVRRCFYLKVCEKLSRERACVGWRREVLSQLVKEWEWDDARLAMLDNRANWKIDQVREAHNELLDAMMQSYRNLIRFARRNNLSVSASPQDIGVLTRKLYAAFEALPGKVTLVNPQISPDLSEPNLTFIYVPPGRANRSGWYLYNRAPNIESIISHQPLEYNRYLNKLVAWAWFNGLLTSRTRLYIKGNGVVDLPKLQEMVADVSHHFPLRLPAPTPKALYSPCEIRHLAIIVNLEYDPTAAFRNQVVHFDFRKLDVFSFGENQNCLVGSVDLLYRNSWNEVRTLHFNGEQSMIEALKTILGKMHQDAAPPDSVEVFCYSQHLRGLIRTRVQQLVSECIELRLSSTRQETGRFKALRVSGQTWGLFFERLNVSVQKLENAIEFYGAISHNKLHGLSVQVETNHVKLPAVVDGFASEGIIQFFFEETQDENGFNIYILDESNRVEVYHHCEGSKEELVRDVSRFYSSSHDRFTYGSSFINFNLPQFYQIVKVDGREQVIPFRTKSIGN,not soluble
2,MQCYSIVGINYIQIYKAVTRNGIKHNIVVIKNSDYIFTITHYSPRTEYWTIVGNTDRQFYDANVLHNCLYIIGGMINNRHVYSVSRVDLKTKKWKTVTNMSSLKSEVSTCVNDGKLYVIGGLEFSISTGIAEYLKHGTSKWKRLPNLITPRYSGASVFVNDDIYVMGGVYTTMRNM,not soluble
3,MSEFKSKLESETLDFLCDAILTLENREECYRFFDDIFTINEIKTIEQRLQVAKMLKEKHTYSDISAETGASTATISRVNRCINYGSDGYNIVLRRLEK,not soluble
4,MVLPKSKNQIGLGRAIQSDFTKNRRNRKGGLKHIVDSDPKAHRAALRSVTHETDLDEFLNTAELGEVEFIAEKQNVTVIQNPEQNPFLLSKEEAARSKQKQEKNKDRLTIPRRPHWDQTTTAVELDRMERESFLNWRRNLAQLQDVEGFIVTPFERNLEIWRQLWRVIERSDVVVQIVDARNPLFFRSAHLEQYVKEVGPSKKNFLLVNKADMLTEEQRNYWSSYFNENNIPFLFFSARMAAEANERGEDLETYESTSSNEIPESLQADENDVHSSRIATLKVLEGIFEKFASTLPDGKTKMTFGLVGYPNVGKSSTINALVGSKKVSVSSTPGKTKHFQTINLSEKVSLLDCPGLVFPSFATTQADLVLDGVLPIDQLREYTGPSALMAERIPKEVLETLYTIRIRIKPIEEGGTGVPSAQEVLFPFARSRGFMRAHHGTPDDSRAARILLKDYVNGKLLYVHPPPNYPNSGSEFNKEHHQKIVSATSDSITEKLQRTAISDNTLSAESQLVDDEYFQENPHVRPMVKGTAVAMQGPVYKGRNTMQPFQRRLNDDASPKYPMNAQGKPLSRRKARQLTALELGVSPEALSSATSKKHNKKNKRSKQRSGVVIDDY,soluble
5,MGSDKIHHHHHHMSQYSVTSSSVVKEKASELGFHKVGIAAVDSIDATEAQRLQAWIELGYHADMEWMANPKRQDIRLVMPEARSLVCVALNYYTPHQRPEGEEYAKISRYGWGRDYHKVMHKKLKQLSTWLESLDESVRVRYYADTGPVQDKVLAQLAGIGWIAKNGNVITREYGSWVFLGEVLTNLELESDRPHTEHCGSCTRCLQACPTSAITQPFIVDANRCIAYHTIENRDEKLPQTLTSHLQGWVAGCDICQDVCPWNQRFASTTDIPEFQPYPGNIAPKLLELAQISDQEWNKRFPASALRRIKPEMLRRNALANLDASRQIMTPKVIIFDFDGTIADTVDALVSIANRLAVDFGYRHISPEQLSLLKNLTSREIIKYSGVSLFKIPFLVKKVKGELKNKIPELKPIPGIKEALIELQNKGYKLGIITSNSKDNVTQFLTINDLNHLFDFIYSGITIFGKTTIINNVLRQNQLQPQEVIYVGDETRDIEASKKANIQVIAVAWGFNSSEVLAKQNPDYLIQQPSELLEVMNGY,not soluble
6,MLKVLVVDDEMLARDELKYLLERTKEVEIIGEADCVEDALEELMQSRPDIVFLDIQLSDDNGFEIANILKKMKNPPAIVFATAYDQYALQAFEVDALDYILKPFDEERIVQTLKKYKKQKQSQIETKHEIKGTDVTVEMHKLALPIEESIVLVNIEDIVYVGLVDGKVTVKTMRETYVTHDTLVILEKKLPQVSFMRVHRSFIANINHITEIQPWFNSTYNLIMKEGSKVPVSRTYAKELKKLLRI,not soluble
7,SSATPIVQFQGESNCLKCFRYRLNDKHRHLFDLISSTWHWASPKAPHKHAIVTVTYHSEEQRQQFLNVVKIPPTIRHKLGFMSMHLL,soluble
8,MIEFSENSHRKSLIEELPRIVERGEKEAQKILDGLSKSQRITLQTNELVLPTKAIGELNKFYGQTIKTENNNEFLNRLIYGDNLLAMQAFLAGDPETGLPSMRGKIDLIYIDPPFDSKANYRTKIHLPTADVEQMPSVIEQFAYSDTWKDGTKSYLEMIVPRLVLMKELLSEKGSIYVHIDWHVGHYVKVIMDEIFGRENFVNEIVWKKTNSPKAQSKGFGTQHDVLYIYRKTPQFIFNQIKKEPDEDYLKSYVYDDNDGRGPYQTVALVAGGIQRSENRKIFEFHGVRAPWLYSLENLERFWSDGRIFKTKTGYRLKVYLKDIALRLYLIYGLTRK,not soluble
9,MGSDKIHHHHHHMPYPKKVTIKEVGPRDGLQNEPVWIATEDKITWINQLSRTGLSYIEITSFVHPKWIPALRDAIDVAKGIDREKGVTYAALVPNQRGLENALEGGINEACVFMSASETHNRKNINKSTSESLHILKQVNNDAQKANLTTRAYLSTVFGCPYEKDVPIEQVIRLSEALFEFGISELSLGDTIGAANPAQVETVLEALLARFPANQIALHFHDTRGTALANMVTALQMGITVFDGSAGGLGGCPYAPGSSGNAATEDIVYMLEQMDIKTNVKLEKLLSAAKWIEEKMGKPLPSRNLQVFKSS,not soluble
10,MPHTNGKGGGAQKWAGNNKRKRNFDGEQDPSVRKALKEKRLLKKRKQDLKGQEETMLDEVEQKYQEMLKKSSRTFLRFEDFPLSWRTLEGLKDNDYTKPTEIQRDTIAYSLTGSDVVGAAKTGSGKTLALVIPVLEALWRAKWSPDYGLGALIISPTRELALQTFSTINAVGAHHGFSCGLVIGGSDVAFERNRISGINIIVCTPGRLLQHMDENAQMSCDSLQVLVLDEADRMLDMGFSKQLNSIINNLPAERQTLLFSATQTRNVKDLCRVCTNDPVFVSVHENASAATPDNLKQSYVIVEEEHKINALWSFIEAHRKKKSLVFVSSCKQARFLTEAFSQLRPGLPVMGLWGTMNQKKRIETFTKFDESKAAVLIATDVASRGLDFEHIDWVIQVDCPAQIDDYIHRVGRSARMDDSGNSLLMVSPSQEEAMIGKLEKHSIPIEELKIHPDAMSDVRVKLRAILAESQELKEYAQKSIVAYLRSIYTMKDKKVFDVEAIDAAALADSFGLVSVPRVRFLNKKAKKSGEKLMEKEVKEEEEEASLVGKFAIDEDDEDIFTVKKPTGEPEQIKEEEAAEKISNITISKTKPLKKAVTKVSAAKKILNKKLKVNTKKTFGAEDDELEELEEGPSTITSYGLDIEKARQEIKSGDKEDRKRFKLLREQRRQEKLAKKNRRAEEEEAVEYDEDGSEDEPDISWLPDPDAVRRKYEEEPDEVEDLEQQALAALGRK,not soluble
11,ASHSRKFLDVRSEEELLSCIKKETEAGKLPPNVAAGMEELYQNYRNAVIESGNPKADEIVLSNMTVALDRILLDVEDPFVFSSHHKAIREPFDYYIFGQNYIRPLIDFGNSFVGNLSLFKDIEEKLQQGHNVVLISNHQTEADPAIISLLLEKTNPYIAENTIFVAGDRVLADPLCKPFSIGRNLICVYSKKHMFDIPELTETKRKANTRSLKEMALLLRGGSQLIWIAPSGGRDRPDPSTGEWYPAPFDASSVDNMRRLIQHSDVPGHLFPLALLCHDIMPPPSQVEIEIGEKRVIAFNGAGLSVAPEISFEEIAATHKNPEEVREAYSKALFDSVAMQYNVLKTAISGKQGLGASTADVSLSQPW,soluble
